From patent US20230355784A1
Square brackets hold non-standard residues; d marks the D form. Ends that are not written are not given here.

Biological target: mAB anti V5 (Thermo Scientific) (mouse)
Assay: 1 ug/ml mouse anti V5 with increasing SADC, capture on streptavidin plate, bound IgG by ELISA

| EC50 [µg/mL] | Binder |
| --- | --- |
| 0.007 | IPNPLLGLDGGSGDYKDDDDKGK[BiotinAca]GC (peptide, part only; not given: transferrin scaffold, not shown: large carriers, also: bound to transferrin scaffold) [SADC with transferrin scaffold carrying the tagged V5 peptide] |
| 0.0279 | IPNPLLGLDGGSGDYKDDDDKGK[BiotinAca]GC (peptide, part only; not given: albumin scaffold, not shown: large carriers, also: bound to albumin scaffold) [SADC with albumin scaffold carrying the tagged V5 peptide] |
| 0.0555 | IPNPLLGLDGGSGDYKDDDDKGK[BiotinAca]GC (peptide, part only; not given: haptoglobin scaffold, part only, also: bound to haptoglobin scaffold) [SADC with haptoglobin scaffold carrying the tagged V5 peptide] |
